T1: CD154 expressed on cells (CD154 expressing Jurkat cells; T cell CD154) (UniProt P29965 1-261, limits assumed)
T1 construct: whole, on cells; also called CD154 (expressed on Jurkat cells)
T1 sequence (looked up): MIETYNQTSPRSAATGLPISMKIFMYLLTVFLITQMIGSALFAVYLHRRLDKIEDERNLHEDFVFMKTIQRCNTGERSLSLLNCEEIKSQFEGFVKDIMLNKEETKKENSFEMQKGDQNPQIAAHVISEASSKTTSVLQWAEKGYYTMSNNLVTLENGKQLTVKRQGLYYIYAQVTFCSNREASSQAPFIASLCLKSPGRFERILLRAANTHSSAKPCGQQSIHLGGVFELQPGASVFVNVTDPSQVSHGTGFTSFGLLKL

T2: human CD154 (human, UniProt P29965 113-261, limits assumed)
T2 construct: also called CD154 antigen; CD40L
T2 sequence (looked up): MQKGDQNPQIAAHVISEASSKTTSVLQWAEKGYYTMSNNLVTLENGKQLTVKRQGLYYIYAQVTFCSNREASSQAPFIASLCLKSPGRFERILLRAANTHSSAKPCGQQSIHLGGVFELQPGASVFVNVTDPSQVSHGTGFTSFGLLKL


Key:
[1] = target: T1, CD154 expressed on cells (CD154 …); test: binding to CD40L (CD154) expressing Jurkat cells, readout % normalized mean MFI (panel title 'CD40L Jurkat Binding'; legend paragraph 14 calls it a BIAcore assay)
[2] = target: T2, human CD154; test: SPR, Biacore 3000, 25 C; antibody immobilized, CD154 antigen flowed over; average n = 6
Description: (§1) Binding experiments were performed on Biacore […] at 25° C. […] Binding of antigen to the tested antibodies was monitored in real time. From the observed kₒₙ, the koff and KD was determined for each variant.
(§2) Scoring analysis was performed using specific analyte concentrations. At the tested concentration, binding should be observed even if the ligand binding affinity is relatively weak. Full kinetics may be performed by known methods. For the molecular interactions with fast off rate, steady state kinetics may be used to determine the KD value.

[3] = target: T1, CD154 expressed on cells (CD154 …); test: binding to CD154 expressing Jurkat cells (legend calls it BIAcore binding assays), FIG. 3
[4] = target: T2, human CD154; test: SPR, Biacore 3000, 25 C; antibody immobilized, CD154 antigen flowed over; average n = 6; exponent sign is a misprint in the cell ('+04'); value taken as E-04, as fixed by the same row's KD x Ka (3.62E-11 x 4.11E+06 = 1.49E-04)
Description: as §1, §2

Row | Binder | EC50 (read off the curve) [1] [nM] | Fold improvement in KD (compared to IDEC131) [2] [fold] | Kd [2] [nM] | koff [2] [s⁻¹] | kon [2] [M⁻¹ s⁻¹] | fold increase in binding affinity compared to IDEC-131 [3] [fold] | koff [4] [s⁻¹]
1 | IDEC-131, humanized anti-human CD154 IgG1 antibody (antibody, V domains shown, Humanized human IgG1 derived from mouse antibody 24-31) VH: EVQLQESGPGLVKPSETLSLTCTVSGDSITNGFWIWIRKPPGNKLEYMGYISYSGSTYYNPSLKSRISISRDTSKNQFSLKLSSVTAADTGVYYCACRSYGRTPYYFDFWGQGTTLTVSS VL: DIVMTQSPSFLSASVGDRVTITCKASQNVITAVAWYQQKPGKSPKLLIYSASNRYTGVPDRFSGSGSGTDFTLTISSLQPEDFADYFCQQYNSYPYTFGGGTKLEIK | ~4 | 1 | 0.151 | 0.000525 | 3.47e+06 | – | –
2 | variant 26, humanized anti-human CD154 antibody derived from IDEC-131 (antibody, V domains shown) VH: EVQLQESGPGLVKPSETLSLTCTVSGDSITNGFWIWIRKPPGNKLEYMGYISYSGSTYYNPSLKSRISISRDTSKNQFSLKLSSVTAADTGVYYCAYRSYGRTPYYFDYWGQGTTLTVSS VL: DIVMTQSPSFLSASVGDRVTITCKASQHLGTAVAWYQQKPGKSPKLLIYSASNRYTGVPDRFSGSGSGTDFTLTISSLQPEDFADYFCQQYDDYPYTFGGGTKLEIK | – | 2.5 | 0.0576 | – | 2.03e+06 | – | –
3 | variant 23, humanized anti-human CD154 antibody derived from IDEC-131 (antibody, V domains shown, also called combination #23) VH: EVQLQESGPGLVKPSETLSLTCTVSGDSITNGFWIWIRKPPGNKLEYMGYISYSGSTYYNPSLKSRISISRDTSKNQFSLKLSSVTAADTGVYYCAYRSYGRTPYYFDYWGQGTTLTVSS VL: DIVMTQSPSFLSASVGDRVTITCKGSSPLGHAVAWYQQKPGKSPKLLIYSASNRYTGVPDRFSGSGSGTDFTLTISSLQPEDFADYFCQQYDDYPYTFGGGTKLEIK | – | 4.2 | 0.0421 | 0.000141 | 3.35e+06 | – | –
4 | INX021 (variant 21), humanized anti-human CD154 IgG1 antibody derived from IDEC-131 (antibody, V domains shown) VH: EVQLQESGPGLVKPSETLSLTCTVSGDSITNGFWIWIRKPPGNKLEYMGYISYSGSTYYNPSLKSRISISRDTSKNQFSLKLSSVTAADTGVYYCAYRSYGRTPYYFDYWGQGTTLTVSS VL: DIVMTQSPSFLSASVGDRVTITCKASSNLGHAVAWYQQKPGKSPKLLIYSASNRYTGVPDRFSGSGSGTDFTLTISSLQPEDFADYFCQQYDDYPYTFGGGTKLEIK | – | 4.7 | 0.0289 | 0.000128 | 4.42e+06 | ~5 | –
5 | variant 22, humanized anti-human CD154 antibody derived from IDEC-131 (antibody, V domains shown) VH: EVQLQESGPGLVKPSETLSLTCTVSGDSITNGFWIWIRKPPGNKLEYMGYISYSGSTYYNPSLKSRISISRDTSKNQFSLKLSSVTAADTGVYYCAYRSYGRTPYYFDYWGQGTTLTVSS VL: DIVMTQSPSFLSASVGDRVTITCKASSNLGNAVAWYQQKPGKSPKLLIYSASNRYTGVPDRFSGSGSGTDFTLTISSLQPEDFADYFCQQYDDYPYTFGGGTKLEIK | – | 5.2 | 0.0262 | 0.000117 | 4.48e+06 | – | –
6 | variant 27, humanized anti-human CD154 antibody derived from IDEC-131 (antibody, V domains shown) VH: EVQLQESGPGLVKPSETLSLTCTVSGDSITNGFWIWIRKPPGNKLEYMGYISYSGSTYYNPSLKSRISISRDTSKNQFSLKLSSVTAADTGVYYCAYRSYGRTPYYFDYWGQGTTLTVSS VL: DIVMTQSPSFLSASVGDRVTITCKASQHLGHAVAWYQQKPGKSPKLLIYSASNRYTGVPDRFSGSGSGTDFTLTISSLQPEDFADYFCQQYDDYPYTFGGGTKLEIK | – | 4.5 | 0.0336 | 0.00012 | 3.58e+06 | – | –
7 | variant 24, humanized anti-human CD154 antibody derived from IDEC-131 (antibody, V domains shown) VH: EVQLQESGPGLVKPSETLSLTCTVSGDSITNGFWIWIRKPPGNKLEYMGYISYSGSTYYNPSLKSRISISRDTSKNQFSLKLSSVTAADTGVYYCAYRSYGRTPYYFDYWGQGTTLTVSS VL: DIVMTQSPSFLSASVGDRVTITCKAPQNLGTAVAWYQQKPGKSPKLLIYSASNRYTGVPDRFSGSGSGTDFTLTISSLQPEDFADYFCQQYDDYPYTFGGGTKLEIK | – | 4.9 | 0.0364 | 0.000135 | 3.7e+06 | – | –
8 | variant 25, humanized anti-human CD154 antibody derived from IDEC-131 (antibody, V domains shown) VH: EVQLQESGPGLVKPSETLSLTCTVSGDSITNGFWIWIRKPPGNKLEYMGYISYSGSTYYNPSLKSRISISRDTSKNQFSLKLSSVTAADTGVYYCAYRSYGRTPYYFDYWGQGTTLTVSS VL: DIVMTQSPSFLSASVGDRVTITCKASQNLNHAVAWYQQKPGKSPKLLIYSASNRYTGVPDRFSGSGSGTDFTLTISSLQPEDFADYFCQQYDDYPYTFGGGTKLEIK | – | 3.9 | 0.0362 | – | 4.11e+06 | – | 0.000149

Further lines, results first:

Row | EC50 (read off the curve) [1] [nM] | Fold improvement in KD (compared to IDEC131) [2] [fold] | Kd [2] [nM] | koff [2] [s⁻¹] | kon [2] [M⁻¹ s⁻¹] | fold increase in binding affinity compared to IDEC-131 [3] [fold] | koff [4] [s⁻¹] | Binder
9 | – | 4.8 | 0.0341 | 0.000123 | 3.61e+06 | – | – | variant 31, humanized anti-human CD154 antibody derived from IDEC-131 (antibody, V domains shown) VH: EVQLQESGPGLVKPSETLSLTCTVSGDSITNGFWIWIRKPPGNKLEYMGYISYSGSTYYNPSLKSRISISRDTSKNQFSLKLSSVTAADTGVYYCAYRSYGRTPYYFDYWGQGTTLTVSS VL: DIVMTQSPSFLSASVGDRVTITCKANQPLGHAVAWYQQKPGKSPKLLIYSASNRYTGVPDRFSGSGSGTDFTLTISSLQPEDFADYFCQQYDDYPYTFGGGTKLEIK
10 | – | 4.8 | 0.0315 | 0.000115 | 3.65e+06 | – | – | variant 28, humanized anti-human CD154 antibody derived from IDEC-131 (antibody, V domains shown) VH: EVQLQESGPGLVKPSETLSLTCTVSGDSITNGFWIWIRKPPGNKLEYMGYISYSGSTYYNPSLKSRISISRDTSKNQFSLKLSSVTAADTGVYYCAYRSYGRTPYYFDYWGQGTTLTVSS VL: DIVMTQSPSFLSASVGDRVTITCKAPSSLGHAVAWYQQKPGKSPKLLIYSASNRYTGVPDRFSGSGSGTDFTLTISSLQPEDFADYFCQQYDDYPYTFGGGTKLEIK
11 | – | 4.4 | 0.0329 | 0.00014 | 4.24e+06 | – | – | variant 30, humanized anti-human CD154 antibody derived from IDEC-131 (antibody, V domains shown) VH: EVQLQESGPGLVKPSETLSLTCTVSGDSITNGFWIWIRKPPGNKLEYMGYISYSGSTYYNPSLKSRISISRDTSKNQFSLKLSSVTAADTGVYYCAYRSYGRTPYYFDYWGQGTTLTVSS VL: DIVMTQSPSFLSASVGDRVTITCKAGHSLGTAVAWYQQKPGKSPKLLIYSASNRYTGVPDRFSGSGSGTDFTLTISSLQPEDFADYFCQQYDDYPYTFGGGTKLEIK
12 | – | 4.2 | 0.0344 | 0.000133 | 3.86e+06 | – | – | variant 29, humanized anti-human CD154 antibody derived from IDEC-131 (antibody, V domains shown) VH: EVQLQESGPGLVKPSETLSLTCTVSGDSITNGFWIWIRKPPGNKLEYMGYISYSGSTYYNPSLKSRISISRDTSKNQFSLKLSSVTAADTGVYYCAYRSYGRTPYYFDYWGQGTTLTVSS VL: DIVMTQSPSFLSASVGDRVTITCKGNQPLGHAVAWYQQKPGKSPKLLIYSASNRYTGVPDRFSGSGSGTDFTLTISSLQPEDFADYFCQQYDDYPYTFGGGTKLEIK

Reference: patent publication US20180193454A1 (IMMUNEXT, published 2018)
